Measurements: patent US20060104971A1, “Multivalent lymphotoxin beta receptor agonists and therapeutic uses thereof” (Biogen Idec MA Inc., priority 2002, published 2006)

Biological target: lymphotoxin beta receptor on the surface of HT29 cells (human) (UniProt P36941)
Experiment: cell-based or functional assay

Sequence of lymphotoxin beta receptor on the surface of HT29 cells (human) (P36941 31-435): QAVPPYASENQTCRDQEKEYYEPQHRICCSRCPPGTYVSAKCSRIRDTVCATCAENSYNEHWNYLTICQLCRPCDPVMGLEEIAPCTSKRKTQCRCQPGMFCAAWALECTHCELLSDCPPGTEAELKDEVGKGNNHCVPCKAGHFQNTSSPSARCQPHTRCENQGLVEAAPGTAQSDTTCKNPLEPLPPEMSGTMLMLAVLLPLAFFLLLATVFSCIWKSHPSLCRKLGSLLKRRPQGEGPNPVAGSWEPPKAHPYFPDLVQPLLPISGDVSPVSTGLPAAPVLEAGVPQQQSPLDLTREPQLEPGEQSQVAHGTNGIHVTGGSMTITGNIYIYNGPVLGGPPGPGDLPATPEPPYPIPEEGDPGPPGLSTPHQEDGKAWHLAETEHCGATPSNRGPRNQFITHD

Substance | minimum A450 (plateau of HT29 cell growth, MTT, with interferon gamma)
humanized BHA10 antibody | 0.9 A450
humanized CBE11 antibody | 0.8 A450
